This data set concerns the molecule itself. Briefly: SEC. For orientation: Size exclusion chromatography separates by hydrodynamic size, large species first.

B1: NC-4 nucleocapsid subunit (other)
chain: MGNARTRRRERRAEKQAQWKAANAGAGAGAMATPHFDYNASVVSKGLANLSLELRKPVSFDIITADTLEQAIERAGTKHGNKGWEAALSAIEMANLYKSLRGTEHHHHLHGSSIEIYEGKLTAEGLRFGIVASRFNHTLVDRLVEGAIDCIVRHGGRGEDITLVRVPGAWEIPVAADELARKEDIDAVIAFGDLIRG
For the protein B1, the binding result is on record as “binds”.
